Experiment [1] addresses T1, human TNFα (human, UniProt P01375 77-233).
T1 construct: also called TAR1; TNF alpha
Put plainly: TNF receptor assay (ELISA): inhibition of TNF binding to plate-bound TNF receptor 1-Fc. On the technique in general: An ELISA detects its analyte on a solid surface through an enzyme-linked reagent.

Experiment [2] concerns the target T2, mouse serum albumin (mouse, UniProt P07724 25-608).
T2 construct: biotinylated MSA (about 2 biotins per molecule) in the capture ELISA; also called MSA
The experiment is described as follows: inhibition biacore: dAb premixed with MSA, binding to MSA-coated CM5 chip, Klotz plot (estimated Kd). As for the experimental part:
The purified dabs were then analysed by inhibition biacore to determine Kd. […] Once the required concentrations of dAb had been determined, MSA antigen at a range of concentrations around the expected Kd was premixed with the dAb and incubated overnight. Binding to the MSA coated biacore chip of dAb in each of the premixes was then measured at a high flow-rate of 30 μl/minute.

A further experiment deals with T3, human serum albumin (human, UniProt P02768 25-609).
T3 construct: also called HSA
Put plainly: capture ELISA: dAb on protein L, biotinylated HSA, streptavidin-HRP. As for the experimental part:
(§1) Two rounds of selection were performed on serum albumin using each of the libraries separately. For each selection, antigen was coated on immunotube (nunc) in 4 ml of PBS at a concentration of 100 μg/ml. In the first round of selection, each of the three libraries was panned separately against HSA (Sigma) and MSA (Sigma). In the second round of selection, phage from each of the six first round selections was panned against (i) the same antigen again (eg 1st round MSA, 2nd round MSA) and (ii) against the reciprocal antigen (eg 1st round MSA, 2nd round HSA) resulting in a total of twelve 2nd round selections. In each case, after the second round of selection 48 clones were tested for binding to HSA and MSA. Soluble dAb fragments were produced as described for scFv fragments by Harrison et al, Methods Enzymol. 1996; 267:83-109 and standard ELISA protocol was followed (Hoogenboom et al. (1991) Nucleic Acids Res., 19: 4133) except that 2% tween PBS was used as a blocking buffer and bound dabs were detected with either protein LHRP (Sigma) (for the Vκs) and protein A—HRP (Amersham Pharmacia Biotech) (for the VHs).
Next, the serum albumin binding dAbs were tested for their ability to capture biotinylated antigen from solution. ELISA protocol (as above) was followed except that ELISA plate was coated with 1 μg/ml protein L (for the Vκ clones) and 1 μg/ml protein A (for the VH clones). […]

The target in experiment [3] is T2, mouse serum albumin. Put plainly: capture ELISA: dAb on protein L, biotinylated MSA, streptavidin-HRP. As for the experimental part: as §1
Next, the serum albumin binding dAbs were tested for their ability to capture biotinylated antigen from solution. ELISA protocol (as above) was followed except that ELISA plate was coated with 1 μg/ml protein L (for the Vκ clones) and 1 μg/ml protein A (for the VH clones). Soluble dAb was captured from solution as in the protocol and detection was with biotinylated MSA or HSA and streptavidin HRP. The biotinylated MSA and HSA had been prepared according to the manufacturer's instructions, with the aim of achieving an average of 2 biotins per serum albumin molecule. […] Next, the dAbs were tested for their ability to bind MSA coated on a CM5 biacore chip.

Experiment [4] concerns the target T4, hen egg lysozyme (hen, UniProt P00698 19-147).
T4 construct: also called HEL; HL
The experiment is described as follows: ELISA on coated hen egg lysozyme, detection with 9e10 and anti mouse IgG-HRP.

Experiment [5] has as its target T4, hen egg lysozyme. The experiment is described as follows: selection from a dAb library.
Experiment [6] concerns the target T1, human TNFα. Put plainly: cell-based or functional assay.
For experiment [7], the target named is T1, human TNFα. Put plainly: not stated; printed in the column 'Equilibrium dissocation constant (Kd = Koff/Kon)' of the data summary.
For experiment [8], the target named is T1, human TNFα. The experiment is described as follows: TNF receptor assay (ELISA): inhibition of TNF binding to plate-bound TNF receptor 1-Fc. The source holds these as a separate data set.
Experiment [9] deals with T1, human TNFα. The experiment is described as follows: ELISA on 1 ug/ml TNF, 200 nM IgG, anti-Fc-HRP. How it is done:
A 96 well plate was coated with 100 ul of INF and TNFRI at 1 ug/ml concentration in PBS overnight at 4 C. 50 ul (200 nM) of IgG was then added to the wells and bound IgG was detected via anti-Fc-HRP.

In experiment [10] the target is T1, human TNFα. The experiment is described as follows: TNF receptor assay (ELISA), fermenter material purified by cation exchange FPLC.
Experiment [11] concerns the target T1, human TNFα. The experiment is described as follows: TNF receptor assay (ELISA): inhibition of TNF binding to plate-bound TNF receptor 1-Fc. The source holds these as a separate data set.

Positions count from the first letter of the chain named.

T4 sequence (P00698 19-147): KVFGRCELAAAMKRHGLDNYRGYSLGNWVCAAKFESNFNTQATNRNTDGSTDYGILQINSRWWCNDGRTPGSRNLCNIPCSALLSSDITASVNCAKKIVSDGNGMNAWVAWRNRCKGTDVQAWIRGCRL
T1 sequence (P01375 77-233 limits assumed): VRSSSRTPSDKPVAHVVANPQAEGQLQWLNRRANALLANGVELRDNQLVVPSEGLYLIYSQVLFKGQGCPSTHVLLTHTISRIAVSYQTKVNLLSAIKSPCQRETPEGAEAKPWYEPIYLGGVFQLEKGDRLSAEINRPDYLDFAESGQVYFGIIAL
T2 sequence (P07724 25-608 limits assumed): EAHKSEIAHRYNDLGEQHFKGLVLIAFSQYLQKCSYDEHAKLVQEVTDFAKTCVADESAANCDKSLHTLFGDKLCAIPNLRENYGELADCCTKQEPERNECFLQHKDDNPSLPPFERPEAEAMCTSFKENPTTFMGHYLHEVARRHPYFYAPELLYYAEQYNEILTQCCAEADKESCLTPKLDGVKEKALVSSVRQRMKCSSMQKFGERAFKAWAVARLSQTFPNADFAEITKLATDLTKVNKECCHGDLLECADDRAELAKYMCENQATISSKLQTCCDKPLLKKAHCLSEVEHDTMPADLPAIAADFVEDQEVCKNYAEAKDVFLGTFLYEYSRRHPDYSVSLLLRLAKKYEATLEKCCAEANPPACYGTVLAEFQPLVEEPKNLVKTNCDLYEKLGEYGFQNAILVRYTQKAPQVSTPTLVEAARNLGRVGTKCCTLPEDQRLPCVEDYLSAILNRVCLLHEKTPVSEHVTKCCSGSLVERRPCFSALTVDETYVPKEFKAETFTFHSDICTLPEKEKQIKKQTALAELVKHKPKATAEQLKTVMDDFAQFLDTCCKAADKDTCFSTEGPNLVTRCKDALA

B1: trimeric TAR1-5-19CYS (other)
chain: DIQMTQSPSSLSASVGDRVTITCRASQSIDSYLHWYQQKPGKAPKLLIYSASELQSGVPSRFSGSGSGTDFTLTISSLQPEDFATYYCQQVVWRPFTFGQGTKVEIKRC
modifications: C-terminal Cys coupled to TMEA (Tris[2-maleimidoethyl]amine)
notes: also called the trimer; TAR1-5-19 homotrimer
With B1, in the experiment with human TNFα [1], the IC50 was 0.3 nM. In other words, the sub-nanomolar range.

B2: MSA16 (other)
VL: DIQMTQSPSSLSASVGDRVTITCRASQSIIKHLKWYQQKPGKAPKLLIYGASRLQSGVPSRFSGSGSGTDFTLTISSLQPEDFATYYCQQGARWPQTFGQGTKVEIK
notes: also called 21; dAb MSA16
Regarding B2, the dissociation constant (Kd) with mouse serum albumin [2] was 200 nM.

B3: MSA26 (other)
VL: B2 VL with I30Y, K31Y, G50K, R53T, G91V, A92R, R93K, W94V, Q96R
notes: also called 25; dAb MSA26
For B3, the Kd in the experiment with mouse serum albumin [2] was 70 nM.

B4: anti-serum albumin Vκ dAb clones 2, 4, 7, 41 (other)
VL: DIQMTQSPSSLSASVGDRVTITCRASQSISSYLNWYQQKPGKAPKLLIYRASPLQSGVPSRFSGSGSGTDFTLTISSLQPEDFATYYCQQTYSVPPTFGQGTKVEIK
In the case of B4, the binding result with human serum albumin and with mouse serum albumin [3] was “binds” throughout.

B5: anti-serum albumin Vκ dAb clones 38, 54 (other)
VL: B4 VL with S93R, V94I
With B5, the binding result with human serum albumin and in the experiment with mouse serum albumin [3] was “binds” throughout.

B6: VH CH/VH Cκ dual specific Fab like fragment (HEL4 CH, TAR2-5 Cκ) (Fab, V domains shown, not shown: a dimerising Fc or GST; small tags and cut ends)
V domain 1: EVQLLESGGGLVQPGGSLRLSCAASGFRISDEDMGWVRQAPGKGLEWVSSIYGPSGSTYYADSVKGRFTISRDNSKNTLYLQMNSLRAEDTAVYYCASALEPLSEPLGFWGQGTLVTVSS
V domain 2: EVQLLESGGGLVQPGGSLRLSCAASGFTFDLYNMFWVRQAPGKGLEWVSFISQTGRLTWYADSVKGRFTISRDNSKNTLYLQMNSLRAEDTAVYYCAKTLEDFDYWGQGTLVTVSS
As to B6, in the experiment with hen egg lysozyme [4], the ELISA signal was 0.154.

B7: VH Cκ chain expressed alone (protein, not shown: a dimerising Fc or GST; small tags and cut ends)
VH: B6 V domain 2
In the case of B7, in the experiment with hen egg lysozyme [4], the ELISA signal is 0.069.

B8: HEL4 (other)
VH: B6 V domain 1
notes: also called VH dAb HEL4; anti-hen egg white lysozyme dAb
For the molecule B8, in the experiment with hen egg lysozyme [5], the binding result was “binds”.

B9: TAR1-5-19 dAb monomer (other)
VL: DIQMTQSPSSLSASVGDRVTITCRASQSIDSYLHWYQQKPGKAPKLLIYSASELQSGVPSRFSGSGSGTDFTLTISSLQPEDFATYYCQQVVWRPFTFGQGTKVEIKR
notes: also called TAR1-5-19 monomer; TAR1-5-19 Vκ dAb
For B9, the “ND50 in the cell assay” value in the experiment with human TNFα [6] is around 30 nM. In the experiment with human TNFα [7], this molecule yielded a dissociation constant Kd of 30 nM. The 50% inhibitory concentration (IC50) with human TNFα [8] came out at 30 nM.

B10: TAR1/TAR2 IgG (bispecific antibody, V domains shown)
VH: EVQLLESGGGLVQPGGSLRLSCAASGFTFEWYWMGWVRQAPGKGLEWVSAISGSGGSTYYADSVKGRFTISRDNSKNTLYLQMNSLRAEDAAVYYCAKVKLGGGPNFGYRGQGTLVTVSS
VL: B9 VL
notes: expressed in COS7 cells with CD33 or IgG κ leader, purified on Protein A; also called the IgG; not shown: IgG1 heavy chain constant region (CH1 from the CH vector; hinge, CH2 and CH3 from the pigplus vector); light chain kappa constant region (CK domain from the CK vector)
For the molecule B10, the binding result with human TNFα [9] is reported as “binds”.

B11: TAR1-5-19d4 (other)
chain: DIQMTQSPSSLSASVGDRVTITCRASQSIDSYLHWYQQKPGKAPKLLIYSASELQSGVPSRFSGSGSGTDFTLTISSLQPEDFATYYCQQVVWRPFTFGQGTKVEIKRGGGGSGGGGSGGGGSGGGGSGGGGSDIQMTQSPSSLSASVGDRVTITCRASQSVKEFLWWYQQKPGKAPKLLIYMASNLQSGVPSRFSGSGSGTDFTLTISSLQPEDFATYYCQQKFKLPRTFGQGTKVEIK
In the case of B11, the results for the 50% inhibitory concentration (IC50) in the experiment with human TNFα [10] and with human TNFα [11] were 8 nM and 2 to 5 nM, respectively. For the same molecule, the “ND50 in the cell assay” value in the experiment with human TNFα [6] was around 5 nM.

By IC50 is commonly meant the midpoint of a concentration-inhibition curve. Read a high IC50 as lower potency. By Kd is commonly meant the concentration at which binding is half-saturated.
